The text below walks through data of publication PMC8858909 (Advances in biological regulation, 2021).

Experiment [1] has as its target untagged full-length SNX27 (human, UniProt Q96L92 1-541). Briefly: ITC. A general note: ITC needs no label: the signal is the heat of the interaction.
Experiment [2] addresses untagged SNX27 FERM domain (human, UniProt Q96L92 273-525). Briefly: ITC.
Experiment [3] concerns the target 6xHis-tagged full-length SNX27 (human, UniProt Q96L92 1-541). Put plainly: pull-down.

B1: SNX1 peptide with the first DxF motif (residues 40-50, DIF) (peptide)
peptide: DTEGEDIFTGA
B1: the “fold weaker than the SNX1 N-terminus” value in experiment [1] and in experiment [2] was ~2 fold in each case.

B2: GST-SNX1 residues 1-70 (domain or fragment, human, UniProt Q13596 1-70, looked up)
chain: MASGGGGCSASERLPPPFPGLEPESEGAAGGSEPEAGDSDTEGEDIFTGAAVVSKHQSPKITTSLLPINN
Consider B2, for which, in experiment [3], the binding result was “binds”.

B3: GST-SNX1 residues 40-70 (domain or fragment, human, UniProt Q13596 40-70, looked up)
chain: DTEGEDIFTGAAVVSKHQSPKITTSLLPINN
As for B3, in experiment [3], the binding result is “binds”.

B4: GST-SNX1 (residues 40-100) (domain or fragment, human, UniProt Q13596 40-100, looked up)
chain: DTEGEDIFTGAAVVSKHQSPKITTSLLPINNGSKENGIHEEQDQEPQDLFADATVELSLDS
With B4, the binding result in experiment [3] is “binds”.

B5: GST-SNX1 (residues 1-142) (domain or fragment, human, UniProt Q13596 1-142, looked up)
chain: MASGGGGCSASERLPPPFPGLEPESEGAAGGSEPEAGDSDTEGEDIFTGAAVVSKHQSPKITTSLLPINNGSKENGIHEEQDQEPQDLFADATVELSLDSTQNNQKKVLAKTLISLPPQEATNSSKPQPTYEELEEEEQEDQ
Consider B5, for which the figures for the Kd in experiment [1] and in experiment [2] were 10 to 12 µM and 12 µM, respectively.

B6: GST-SNX1 residues 1-80 (domain or fragment, human, UniProt Q13596 1-80, looked up)
chain: MASGGGGCSASERLPPPFPGLEPESEGAAGGSEPEAGDSDTEGEDIFTGAAVVSKHQSPKITTSLLPINNGSKENGIHEE
On to B6, for which the binding result in experiment [3] is listed as “binds”.

B7: SNX1 peptide with the second DxF motif (residues 80-90, DLF) (peptide)
peptide: EQDQEPQDLFA
B7: the binding result in experiment [1] and in experiment [2] was “binds” each time.

B8: GST-SNX2_N-terminal (1-139) (domain or fragment, human, UniProt O60749 1-139, looked up)
chain: MAAEREPPPLGDGKPTDFEDLEDGEDLFTSTVSTLESSPSSPEPASLPAEDISANSNGPKPTEVVLDDDREDLFAEATEEVSLDSPEREPILSSEPSPAVTPVTPTTLIAPRIESKSMSAPVIFDRSREEIEEEANGDI
As to B8, the binding result in experiment [3] was “binds”.

B9: GST-SNX1 residues 40-60 (domain or fragment, human, UniProt Q13596 40-60, looked up)
chain: DTEGEDIFTGAAVVSKHQSPK
Regarding B9, the binding result in experiment [3] was “binds”.

B10: GST-SNX1 (residues 1-90) (domain or fragment, human, UniProt Q13596 1-90, looked up)
chain: MASGGGGCSASERLPPPFPGLEPESEGAAGGSEPEAGDSDTEGEDIFTGAAVVSKHQSPKITTSLLPINNGSKENGIHEEQDQEPQDLFA
Take B10: in experiment [3], the binding result was “binds”.

B11: GST-SNX1 (residues 40-90) (domain or fragment, human, UniProt Q13596 40-90, looked up)
chain: DTEGEDIFTGAAVVSKHQSPKITTSLLPINNGSKENGIHEEQDQEPQDLFA
As for B11, in experiment [3], the binding result is on record as “binds”.

B12: GST-SNX1 residues 1-60 (domain or fragment, human, UniProt Q13596 1-60, looked up)
chain: MASGGGGCSASERLPPPFPGLEPESEGAAGGSEPEAGDSDTEGEDIFTGAAVVSKHQSPK
In the case of B12, the binding result in experiment [3] is recorded as “binds”.

B13: GST-SNX1 residues 40-80 (domain or fragment, human, UniProt Q13596 40-80, looked up)
chain: DTEGEDIFTGAAVVSKHQSPKITTSLLPINNGSKENGIHEE
As to B13, the binding result in experiment [3] is reported as “binds”.
